Measurements reported in paper PMC3587421, “Native Tertiary Structure and Nucleoside Modifications Suppress tRNA’s Intrinsic Ability to Activate the Innate Immune Sensor PKR”.

Molecular target: PKR dsRBD (P20) (UniProt P19525 1-184)
Assay: EMSA; 0.1 mg/mL herring sperm DNA competitor; Hill 2.9; 25 mM Hepes-KOH pH 7.5, 10 mM NaCl, 5% glycerol, 5 mM DTT, 0.1 mM EDTA, 0.1 mg/mL tRNAPhe or herring sperm DNA; room temperature 10 min; 10% native gel, 0.5x TB, 16 C
Details: protein: recombinant; chain copies: 2; label: 5'-32P; tRNA fold, monomer, ~20 bp

Sequence of PKR dsRBD (P20) (P19525 1-184): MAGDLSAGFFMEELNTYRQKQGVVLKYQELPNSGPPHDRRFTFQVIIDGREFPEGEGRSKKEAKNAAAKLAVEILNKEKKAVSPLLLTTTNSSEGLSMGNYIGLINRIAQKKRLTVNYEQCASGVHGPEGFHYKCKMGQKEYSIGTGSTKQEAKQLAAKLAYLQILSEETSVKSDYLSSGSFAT

B1: T7 mt-tRNALeu WT (monomer) (structured_RNA)
RNA: UUAAGAUGGCAGAGCCCGGUAAUCGCAUAAAACUUAAAACUUUACAGUCAGAGGUUCAAUUCCUCUUCUUAACACCA
modifications: none (unmodified transcript)
In the case of B1, the Kd is reported as 5.1 µM.
